Laboratory results as given in US7838231 (REGENTS OF THE UNIVERSITY OF MICHIGAN, dated 2010).

Legend:
[1] = biological target: T1, NPHP4, human full length, yeast two-hybrid prey (human, UniProt O75161 1-1426); test: direct yeast two-hybrid assay
T1 construct: also called nephroretinin; nephrocystin-4
T1 sequence: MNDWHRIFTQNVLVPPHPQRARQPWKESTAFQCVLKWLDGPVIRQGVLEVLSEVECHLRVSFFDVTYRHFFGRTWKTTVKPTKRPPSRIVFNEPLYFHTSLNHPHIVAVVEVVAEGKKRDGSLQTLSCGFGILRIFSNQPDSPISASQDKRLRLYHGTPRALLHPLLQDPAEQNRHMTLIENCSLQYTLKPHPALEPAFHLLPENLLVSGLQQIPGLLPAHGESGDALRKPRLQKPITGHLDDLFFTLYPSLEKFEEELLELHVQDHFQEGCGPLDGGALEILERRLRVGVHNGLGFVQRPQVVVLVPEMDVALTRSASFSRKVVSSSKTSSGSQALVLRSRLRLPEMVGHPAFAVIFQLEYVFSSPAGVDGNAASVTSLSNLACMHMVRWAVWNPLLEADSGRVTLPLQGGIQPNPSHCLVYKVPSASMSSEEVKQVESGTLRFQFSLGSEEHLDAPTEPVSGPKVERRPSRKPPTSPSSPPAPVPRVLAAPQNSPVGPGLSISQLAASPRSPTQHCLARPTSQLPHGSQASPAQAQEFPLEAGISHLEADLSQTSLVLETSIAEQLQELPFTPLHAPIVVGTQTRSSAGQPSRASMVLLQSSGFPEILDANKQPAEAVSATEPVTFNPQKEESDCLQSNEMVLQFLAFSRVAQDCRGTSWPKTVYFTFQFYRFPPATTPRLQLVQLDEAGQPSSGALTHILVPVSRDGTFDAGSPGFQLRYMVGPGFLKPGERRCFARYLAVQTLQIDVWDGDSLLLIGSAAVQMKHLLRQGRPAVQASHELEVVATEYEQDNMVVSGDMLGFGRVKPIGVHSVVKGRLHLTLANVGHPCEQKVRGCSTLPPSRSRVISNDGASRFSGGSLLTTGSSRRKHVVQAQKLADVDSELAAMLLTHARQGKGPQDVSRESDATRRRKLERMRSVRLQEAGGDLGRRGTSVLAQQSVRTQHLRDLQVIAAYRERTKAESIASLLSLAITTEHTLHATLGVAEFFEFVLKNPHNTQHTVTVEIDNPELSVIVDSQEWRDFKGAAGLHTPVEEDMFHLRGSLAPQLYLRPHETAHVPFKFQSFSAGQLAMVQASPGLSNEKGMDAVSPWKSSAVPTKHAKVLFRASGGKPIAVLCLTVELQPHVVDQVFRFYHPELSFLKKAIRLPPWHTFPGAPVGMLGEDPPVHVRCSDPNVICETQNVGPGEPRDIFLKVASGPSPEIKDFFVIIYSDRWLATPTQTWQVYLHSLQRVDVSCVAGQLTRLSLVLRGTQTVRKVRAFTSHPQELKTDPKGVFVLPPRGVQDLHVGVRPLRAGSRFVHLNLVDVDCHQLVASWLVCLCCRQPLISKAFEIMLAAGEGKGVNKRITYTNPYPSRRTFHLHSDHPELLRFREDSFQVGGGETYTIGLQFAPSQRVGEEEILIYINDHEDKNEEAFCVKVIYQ

[2] = biological target: T2, NPHP3, human full length, yeast two-hybrid prey (human, UniProt Q7Z494 1-1330); test: direct yeast two-hybrid assay
T2 sequence (looked up): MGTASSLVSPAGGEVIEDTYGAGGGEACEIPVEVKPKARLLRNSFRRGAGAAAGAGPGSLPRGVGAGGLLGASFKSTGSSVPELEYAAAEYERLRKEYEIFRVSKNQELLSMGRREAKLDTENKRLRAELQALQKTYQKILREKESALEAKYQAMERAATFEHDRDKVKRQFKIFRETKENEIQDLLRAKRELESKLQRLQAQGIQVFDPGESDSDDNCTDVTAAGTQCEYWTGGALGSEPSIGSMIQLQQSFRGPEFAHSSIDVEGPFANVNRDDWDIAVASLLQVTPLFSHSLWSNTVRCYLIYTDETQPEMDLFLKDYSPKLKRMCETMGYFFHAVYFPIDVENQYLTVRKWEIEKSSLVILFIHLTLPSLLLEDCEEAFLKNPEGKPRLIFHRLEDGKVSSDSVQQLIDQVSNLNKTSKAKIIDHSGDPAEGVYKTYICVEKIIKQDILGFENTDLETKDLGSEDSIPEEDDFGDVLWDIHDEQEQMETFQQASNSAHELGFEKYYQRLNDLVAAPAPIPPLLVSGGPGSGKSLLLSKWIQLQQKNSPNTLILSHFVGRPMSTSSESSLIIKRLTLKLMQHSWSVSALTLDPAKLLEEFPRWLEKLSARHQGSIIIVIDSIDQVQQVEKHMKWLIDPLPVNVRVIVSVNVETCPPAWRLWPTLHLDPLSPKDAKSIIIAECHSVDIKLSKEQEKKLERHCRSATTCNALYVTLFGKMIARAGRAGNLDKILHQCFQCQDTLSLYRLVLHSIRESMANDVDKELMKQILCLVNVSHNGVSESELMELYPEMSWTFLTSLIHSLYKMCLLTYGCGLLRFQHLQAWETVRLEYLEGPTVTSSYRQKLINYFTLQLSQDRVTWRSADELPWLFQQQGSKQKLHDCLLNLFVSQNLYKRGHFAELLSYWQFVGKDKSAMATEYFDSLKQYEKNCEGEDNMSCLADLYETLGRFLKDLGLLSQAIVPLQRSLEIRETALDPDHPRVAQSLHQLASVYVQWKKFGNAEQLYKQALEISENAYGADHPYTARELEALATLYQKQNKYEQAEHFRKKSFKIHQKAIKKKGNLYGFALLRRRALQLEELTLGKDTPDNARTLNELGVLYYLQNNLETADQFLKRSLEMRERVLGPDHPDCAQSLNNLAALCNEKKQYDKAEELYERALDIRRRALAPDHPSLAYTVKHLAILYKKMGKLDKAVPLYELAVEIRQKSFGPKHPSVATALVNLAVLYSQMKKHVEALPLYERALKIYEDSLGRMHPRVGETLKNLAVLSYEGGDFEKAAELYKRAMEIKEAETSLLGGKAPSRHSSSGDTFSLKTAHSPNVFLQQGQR

B1: full-length human nephrocystin-5 (NPHP5), yeast two-hybrid fusion (other, not shown: small tags and cut ends)
chain: MKPTGTDPRILSIAAEVAKSPEQNVPVILLKLKEIINITPLGSSELKKIKQDIYCYDLIQYCLLVLSQDYSRIQGGWTTISQLTQILSHCCVGLEPGEDAEEFYNELLPSAAENFLVLGRQLQTCFINAAKAEEKDELLHFFQIVTDSLFWLLGGHVELIQNVLQSDHFLHLLQADNVQIGSAVMMMLQNILQINSGDLLRIGRKALYSILDEVIFKLFSTPSPVIRSTATKLLLLMAESHQEILILLRQSTCYKGLRRLLSKQETGTEFSQELRQLVGLLSPMVYQEVEEQKLHQAACLIQAYWKGFQTRKRLKKLPSAVIALQRSFRSKRSKMLLEINRQKEEEDLKLQLQLQRQRAMRLSRELQLSMLEIVHPGQVEKHYREMEEKSALNIQKHWRGYRERKNFHQQRQSLIEYKAAVTLQRAALKFLAKCRKKKKLFAPWRGLQELTDARRVELKKRVDDYVRRHLGSPMSDVVSRELHAQAQERLQHYFMGRALEERAQQHREALIAQISTNVEQLMKAPSLKEAEGKEPELFLSRSRPVAAKAKQAHLTTLKHIQAPWWKKLGEESGDEIDVPKDELSIELENLFIGGTKPP
notes: Full-length NPHP5 cDNA (598 amino acid residues) fused to a GAL4 domain; also called KIAA0036
B1: no binding [1]; no binding [2].
